Reference: PMC3134789

T1: Nova-1 KH2 (UniProt Q9JKN6 171-237)
T1 sequence: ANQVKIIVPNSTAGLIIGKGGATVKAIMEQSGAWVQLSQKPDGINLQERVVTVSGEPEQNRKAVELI


Experiments:
[1] = target: Nova-1 KH2 domain (individual domain); experiment: AUC
[2] = target: Nova-1 KH2 domain (individual domain); experiment: SEC
Nova-1 KH2 = target: T1, Nova-1 KH2; experiment: NMR

Chain of Nova-1 KH2 domain (individual domain) (domain or fragment) (P51513 44-493): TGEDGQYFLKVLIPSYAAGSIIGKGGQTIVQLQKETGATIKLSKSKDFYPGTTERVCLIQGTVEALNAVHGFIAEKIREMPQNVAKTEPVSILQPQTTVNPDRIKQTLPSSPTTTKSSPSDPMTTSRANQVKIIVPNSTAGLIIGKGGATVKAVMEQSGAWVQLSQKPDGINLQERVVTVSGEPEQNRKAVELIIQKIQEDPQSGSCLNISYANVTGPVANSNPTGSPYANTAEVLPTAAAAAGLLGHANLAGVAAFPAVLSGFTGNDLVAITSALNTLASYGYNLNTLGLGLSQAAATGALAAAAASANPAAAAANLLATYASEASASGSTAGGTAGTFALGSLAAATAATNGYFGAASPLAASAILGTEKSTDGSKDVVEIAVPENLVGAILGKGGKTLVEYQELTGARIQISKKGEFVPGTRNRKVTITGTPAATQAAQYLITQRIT

stoichiometry N [1] | stoichiometry N [2] | Molecule | binding result (Nova-1 KH2)
2 | 2 | Nova-1 KH2 domain (individual domain) (domain or fragment) | –
– | – | UCAC (ssRNA) [UCAC tetranucleotide] | binds
